Data set [1] has as its target HuR (human antigen R) (Homo sapiens, UniProt Q15717). The experiment in a line: SPR. The class given is binding.
The target in data set [2] is HuR full-length (UniProt Q15717 1-326). In words: EMSA. (Mobility shift assays separate free from complexed probe on a gel.)
Data set [3] deals with HuR RRM12 (UniProt Q15717 18-186). In words: EMSA.

Here are results for two molecules from PMC7488360 (Acta Pharmaceutica Sinica. B, 2020).

Chain of HuR full-length (Q15717 whole entry): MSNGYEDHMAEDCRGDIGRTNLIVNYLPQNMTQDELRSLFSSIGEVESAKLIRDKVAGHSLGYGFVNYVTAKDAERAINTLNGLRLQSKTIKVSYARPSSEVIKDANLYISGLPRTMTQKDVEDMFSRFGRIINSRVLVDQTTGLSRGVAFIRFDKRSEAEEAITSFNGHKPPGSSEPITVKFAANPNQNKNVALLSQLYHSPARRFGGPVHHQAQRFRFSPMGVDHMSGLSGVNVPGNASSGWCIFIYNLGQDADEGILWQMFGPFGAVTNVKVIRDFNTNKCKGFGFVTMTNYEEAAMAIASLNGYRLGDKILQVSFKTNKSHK
Chain of HuR (human antigen R) (Q15717 18-186): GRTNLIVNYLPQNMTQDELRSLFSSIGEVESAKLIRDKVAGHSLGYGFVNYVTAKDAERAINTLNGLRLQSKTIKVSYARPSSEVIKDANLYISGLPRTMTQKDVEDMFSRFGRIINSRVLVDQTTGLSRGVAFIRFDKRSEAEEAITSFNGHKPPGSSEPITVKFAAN
Chain of HuR RRM12 (Q15717 18-186): as above

Broadly, the Kd is the equilibrium constant for the complex coming apart. A lower Kd goes with a tighter complex. Molecule `CC1=NN(c2ccc(C)c(C)c2)C(=O)/C1=N\Nc1cccc(-c2cccc(C(=O)O)c2)c1O` [eltrombopag] showed a Kd in data set [1] of 2500 nM.

Consider AAUUCUACAUACUAAAUCUCUCUCCUUUUUUAAUUUUAAUAUUUG (ssRNA) [AREVegf-a], for which the binding result in data set [2] and in data set [3] was “binds” in each case.
